The chains are these.
T1: human IL-23 (human, UniProt Q9NPF7 20-189; P29460 23-328)
T1 sequence (looked up) 1: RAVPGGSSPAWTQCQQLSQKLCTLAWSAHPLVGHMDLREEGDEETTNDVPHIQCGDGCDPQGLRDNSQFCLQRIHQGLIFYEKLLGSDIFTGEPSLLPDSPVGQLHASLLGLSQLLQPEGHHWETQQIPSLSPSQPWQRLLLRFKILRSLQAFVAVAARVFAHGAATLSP
T1 sequence (looked up) 2: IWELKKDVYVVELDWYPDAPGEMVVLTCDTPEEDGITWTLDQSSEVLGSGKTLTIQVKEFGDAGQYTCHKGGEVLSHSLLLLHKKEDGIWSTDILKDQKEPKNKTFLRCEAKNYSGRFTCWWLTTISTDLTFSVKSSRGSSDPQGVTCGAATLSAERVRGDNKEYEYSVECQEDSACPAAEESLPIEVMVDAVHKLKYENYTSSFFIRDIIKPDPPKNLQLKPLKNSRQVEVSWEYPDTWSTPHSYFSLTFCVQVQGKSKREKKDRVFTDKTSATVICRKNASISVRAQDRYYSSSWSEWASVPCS

B1: 1434A08 (designed binder)
chain: MGVSDVPRDLEVVAATPTSLLISWGHYPMHVRYYRITYGETGGNSPVQEFTVPHRTHTATISGLKPGVDYTITVYAVTYYNEADYSQIPISINYRTEIDKPSQHHHHHH
B2: 1438A09 (designed binder)
chain: B1 chain with H54R, R55S, T56R, H57Y
B3: 1438E05 (designed binder)
chain: B1 chain with H54S, R55N, T56V
B4: 1438B02 (designed binder)
chain: B1 chain with H54R, R55K, H57Y
B5: 1438D01 (designed binder)
chain: B1 chain with H54N, T56A
B6: 1572H08 (designed binder)
chain: B1 chain with M29L, H54S, T56K, H57Y
notes: captured by anti-His mAb
B7: 1550 E03 (designed binder)
chain: B1 chain with M29L, V31I, H54R, R55M, T56R, N81S, A83E, D84L, S86K, Q87Y
notes: captured by anti-His mAb
B8: 1550C05 (designed binder)
chain: B1 chain with H54P, T56R, H57Y
notes: captured by anti-His mAb
B9: 1490A07 (designed binder)
chain: MGVSDVPRDLEVVAATPTSLLISWGHYPLHIRYYRITYGETGGNSPVQEFTVPHAKYTATISGLKPGVDYTITVYAVTYYAQENYKEIPISINYRTEIDKPSQHHHHHH
notes: captured by anti-His mAb
B10: 1487H04 (designed binder)
chain: B1 chain with H54A, T56Q, H57Y, N81Q, A83Y, D84E, S86R, Q87Y
notes: captured by anti-His mAb
B11: 1437A09 (designed binder)
chain: B1 chain with H54S, R55K, T56Q
notes: captured by anti-His mAb
B12: 1490H06 (designed binder)
chain: B1 chain with M29L, V31I, H54R, R55Q, T56K, H57Y
notes: captured by anti-His mAb
B13: 1486B05 (designed binder)
chain: B1 chain with H54S, T56I, H57Y
notes: captured by anti-His mAb
B14: 1487G03 (designed binder)
chain: B1 chain with M29L, H54A, R55H, T56R, H57Y
notes: captured by anti-His mAb
B15: 1437G04 (designed binder)
chain: B1 chain with M29L, H54Y, R55Y, T56H, H57Y
notes: captured by anti-His mAb
B16: 1572F05 (designed binder)
chain: B1 chain with M29L, V31I, H54R, R55Q, T56K, H57Y
notes: captured by anti-His mAb
B17: 1487C03 (designed binder)
chain: B1 chain with M29L, V31I, H54K, R55Q, T56V, H57Y
notes: captured by anti-His mAb
B18: 1490C07 (designed binder)
chain: B1 chain with M29L, H54S, R55N, T56R, H57Y
notes: captured by anti-His mAb
B19: 1491A05 (designed binder)
chain: B9 chain with I31V, H54S, A55Q, K56V
notes: captured by anti-His mAb
B20: 1571F10 (designed binder)
chain: B9 chain with H54S, A55R, K56Y, Y57H, A81E, E83V, N84E, K86R
notes: captured by anti-His mAb
B21: 1486C04 (designed binder)
chain: B1 chain with H54P, R55H, T56R, H57Y
notes: captured by anti-His mAb
B22: 1550A07 (designed binder)
chain: B9 chain with L29M, I31V, H54V, A55P, K56R
notes: captured by anti-His mAb
B23: 1487D09 (designed binder)
chain: B1 chain with V31I, H54R, R55S, T56R
notes: captured by anti-His mAb
B24: 1572D04 (designed binder)
chain: B1 chain with H54P, T56R, H57Y, N81E, E82Q, A83P, D84I, S86A, Q87T
notes: captured by anti-His mAb
B25: 1486D05 (designed binder)
chain: B1 chain with M29L, R55Q, T56R, H57Y
notes: captured by anti-His mAb
B26: 1490G02 (designed binder)
chain: B1 chain with H54P, T56Y, N81M, A83E, D84K, S86A, Q87V
notes: captured by anti-His mAb
B27: 1486G03 (designed binder)
chain: B1 chain with H54S, T56Y, H57Y
notes: captured by anti-His mAb
B28: 1550H05 (designed binder)
chain: B1 chain with M29L, H54R, R55Q, T56I, H57Y
notes: captured by anti-His mAb
B29: 1572B10 (designed binder)
chain: B1 chain with H54V, R55P, T56R
notes: captured by anti-His mAb
B30: 1486D04 (designed binder)
chain: B1 chain with M29L, V31I, H54R, R55S
notes: captured by anti-His mAb
B31: 1490 E02 (designed binder)
chain: B1 chain with H54R, R55T, T56Q, H57Y
notes: captured by anti-His mAb
B32: 1490H08 (designed binder)
chain: B1 chain with M29L, V31I, H54N, R55T, T56S
notes: captured by anti-His mAb

Residue numbers refer to the chain shown, from its start.

One may read the kon as the rate constant with which the complex forms. By Kd is commonly meant the concentration at which binding is half-saturated. Low values mean a tighter complex, high ones a looser complex. The koff is a measure of how fast the partners let go of each other. Read a high koff as a short-lived complex.

One assay concerns the target T1, human IL-23. The assay is described as follows: cell-based or functional assay.
Regarding B1, the “Kit 225 pSTAT3 IC50 (nM)” value is 4.9 nM.

With B2, the “Kit 225 pSTAT3 IC50 (nM)” value is 10.8 nM.

B3: the “Kit 225 pSTAT3 IC50 (nM)” value came out at 39.6 nM.

For B4, the “Kit 225 pSTAT3 IC50 (nM)” value was determined as 8.6 nM.

B5: the “Kit 225 pSTAT3 IC50 (nM)” value was determined as 11.4 nM.

B6: the “Kit 225 pSTAT3 IC50 (nM)” value turned out to be 2.8 nM.

For B7, the “Kit 225 pSTAT3 IC50 (nM)” value worked out at 5.3 nM.

On to B8, for which the “Kit 225 pSTAT3 IC50 (nM)” value is 16.8 nM.

As to B9, the “Kit 225 pSTAT3 IC50 (nM)” value was 0.6 nM.

Consider B10, for which the “Kit 225 pSTAT3 IC50 (nM)” value worked out at 2 nM.

Turning to B11, the “Kit 225 pSTAT3 IC50 (nM)” value turned out to be 20.2 nM.

Take B12: the “Kit 225 pSTAT3 IC50 (nM)” value came out at 2.3 nM.

B13: the “Kit 225 pSTAT3 IC50 (nM)” value came to 4 nM.

With B14, the “Kit 225 pSTAT3 IC50 (nM)” value stood at 3 nM.

Regarding B15, the “Kit 225 pSTAT3 IC50 (nM)” value turned out to be 3.3 nM.

Consider B16, for which the “Kit 225 pSTAT3 IC50 (nM)” value worked out at 3 nM.

In the case of B17, the “Kit 225 pSTAT3 IC50 (nM)” value came out at 3.7 nM.

Regarding B18, the “Kit 225 pSTAT3 IC50 (nM)” value is 5.6 nM.

As for B19, the “Kit 225 pSTAT3 IC50 (nM)” value was found to be 0.3 nM.

B20: the “Kit 225 pSTAT3 IC50 (nM)” value was found to be 0.1 nM.

For the molecule B21, the “Kit 225 pSTAT3 IC50 (nM)” value is 31.9 nM.

As for B22, the “Kit 225 pSTAT3 IC50 (nM)” value stood at 1 nM.

As for B23, the “Kit 225 pSTAT3 IC50 (nM)” value is 2 nM.

Consider B24, for which the “Kit 225 pSTAT3 IC50 (nM)” value amounted to 4 nM.

As for B25, the “Kit 225 pSTAT3 IC50 (nM)” value was 4 nM.

On to B26, for which the “Kit 225 pSTAT3 IC50 (nM)” value came out at 0.4 nM.

Turning to B27, the “Kit 225 pSTAT3 IC50 (nM)” value stood at 3 nM.

For the molecule B28, the “Kit 225 pSTAT3 IC50 (nM)” value was found to be 1.5 nM.

Regarding B29, the “Kit 225 pSTAT3 IC50 (nM)” value amounted to 0.8 nM.

Turning to B30, the “Kit 225 pSTAT3 IC50 (nM)” value was 2 nM.

Another assay concerns the target T1, human IL-23. As to the kind of experiment: SPR, Adnectin captured by anti-His mAb, IL-23 injected. The protocol:
All surface plasmon experiments were conducted in HBS-EP (10 mM Hepes 150 mM NaCl 3 mM EDTA 0.05% Surfactant P20) at 25° C. IL-23 was injected over anti-His mAb captured Adnectins for 2 minutes followed by a 10 minute dissociation phase. Evaluation of the binding specificity was completed using Biacore T100 evaluation software. Additional detailed methods are described in Example 4.
(In general: Surface plasmon resonance follows binding to a sensor surface in real time, without labels.)
In turn, B6 returned a kon of 57300 M⁻¹ s⁻¹.

The molecule B7 came in with a Kd of 1.9 nM, a koff of 0.000186 s⁻¹ and a kon of 99500 M⁻¹ s⁻¹.

Consider B8, for which binding was put at a Kd of 2.1 nM, the koff was 0.000135 s⁻¹ and the kon was 65900 M⁻¹ s⁻¹.

Molecule B9 registered a kon of 163000 M⁻¹ s⁻¹.

For B31, the Kd was determined as 4.8 nM, the koff was 0.000465 s⁻¹ and the kon stood at 97300 M⁻¹ s⁻¹.

B10 returned a kon of 59600 M⁻¹ s⁻¹.

B11: binding was put at a Kd of 5.7 nM, the koff was found to be 0.00046 s⁻¹ and the kon worked out at 80600 M⁻¹ s⁻¹.

Molecule B12 had a kon of 93500 M⁻¹ s⁻¹.

Take B13: the Kd amounted to 2.8 nM, the koff worked out at 0.000381 s⁻¹ and the kon stood at 134000 M⁻¹ s⁻¹.

The molecule B32 registered a Kd of 3.5 nM, a koff of 0.000587 s⁻¹ and a kon of 167000 M⁻¹ s⁻¹.

As for B14, the Kd was 3.1 nM, the koff stood at 0.000316 s⁻¹ and the kon came out at 103000 M⁻¹ s⁻¹.

The molecule B15 had a Kd of 3.3 nM, a koff of 0.000446 s⁻¹ and a kon of 134000 M⁻¹ s⁻¹.

With B16, the affinity, expressed as Kd, was 2.2 nM; the koff came out at 0.000285 s⁻¹; the kon was determined as 132000 M⁻¹ s⁻¹.

Regarding B17, binding was characterised by a dissociation constant (Kd) of 2.4 nM, the koff is 0.000382 s⁻¹ and the kon was determined as 161000 M⁻¹ s⁻¹.

In turn, B18 came in with a Kd of 4.5 nM, a koff of 0.000426 s⁻¹ and a kon of 95600 M⁻¹ s⁻¹.

B19 yielded a Kd of 2.1 nM, a koff of 0.000408 s⁻¹ and an on-rate constant (kon) of 198000 M⁻¹ s⁻¹.

For the molecule B20, the kon was determined as 268000 M⁻¹ s⁻¹.

Turning to B21, binding was characterised by a dissociation constant (Kd) of 3.4 nM, the koff worked out at 0.000379 s⁻¹ and the kon amounted to 112000 M⁻¹ s⁻¹.

Consider B22, for which the Kd was 1.1 nM, the koff was 0.000133 s⁻¹ and the kon stood at 117000 M⁻¹ s⁻¹.

Turning to B23, the Kd is 1.7 nM, the koff was 0.00025 s⁻¹ and the kon amounted to 150000 M⁻¹ s⁻¹.

Turning to B24, binding was put at a Kd of 2.9 nM, the koff amounted to 0.000294 s⁻¹ and the kon was 103000 M⁻¹ s⁻¹.

The molecule B25 came in with a Kd of 2.9 nM, an off-rate constant (koff) of 0.000344 s⁻¹ and a kon of 120000 M⁻¹ s⁻¹.

Consider B26, for which the Kd is 1.7 nM, the koff amounted to 0.000332 s⁻¹ and the kon is 197000 M⁻¹ s⁻¹.

B27 returned a Kd of 4.9 nM, a koff of 0.000425 s⁻¹ and a kon of 86200 M⁻¹ s⁻¹.

As for B28, the dissociation constant (Kd) was determined as 3.3 nM, the koff is 0.000212 s⁻¹ and the kon turned out to be 65200 M⁻¹ s⁻¹.

For the molecule B29, the kon is 65300 M⁻¹ s⁻¹.

In the case of B30, the equilibrium dissociation constant (Kd) was determined as 2.3 nM, the koff came to 0.000352 s⁻¹ and the kon amounted to 151000 M⁻¹ s⁻¹.

These data come from patent US20130012436A1 (Bristol-Myers Squibb, published 2013).
